This is an account of results in patent US20090226456A1 (published 2009).

B4: Full-length human TR6 (without Fc) (receptor)
chain: VAETPTYPWRDAETGERLVCAQCPPGTFVQRPCRRDSPTTCGPCPPRHYTQFWNYLERCRYCNVLCGEREEEARACHATHNRACRCRTGFFAHAGFCLEHASCPPGAGVIAPGTPSQNTQCQPCPPGTFSASSSSSEQCQPHRNCTALGLALNVPGSSSHDTLCTSCTGFPLSTRVPGAEECERAVIDFVAFQDISIKRLQRLLQALEAPEGWGPTPRAGRAALQLKLRRRLTELLGAQDGALLVRLLQALRVARMPGLERSVRERFLPVH
notes: also called TR6-non-Fc; TR6 non-Fc

Experiment [1] concerns the target T1, Fas receptor on Jurkat or HT-29 cells (human, UniProt P25445 26-335).
T1 sequence (looked up): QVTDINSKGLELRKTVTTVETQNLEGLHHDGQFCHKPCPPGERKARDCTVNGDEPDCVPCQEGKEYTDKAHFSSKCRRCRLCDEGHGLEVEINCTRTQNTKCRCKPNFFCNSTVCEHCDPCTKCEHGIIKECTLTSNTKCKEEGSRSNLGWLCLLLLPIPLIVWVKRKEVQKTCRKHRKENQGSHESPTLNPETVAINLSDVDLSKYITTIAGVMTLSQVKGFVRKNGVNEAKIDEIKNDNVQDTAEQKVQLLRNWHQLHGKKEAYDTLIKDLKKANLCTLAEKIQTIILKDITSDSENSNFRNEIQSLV
Nature of the experiment: cell-based or functional assay.

Experiment [2] deals with B4. The experiment is described as follows: BIAcore, FasL-Flag soluble.
Experiment [3] deals with T2, TNFR6 alpha-Fc (full length TNFR-6 alpha, amino acids 1-300 of SEQ ID NO:2, fused to an Fc domain) (human, UniProt O95407 30-300).
T2 construct: Cloned as aa 1-300; disulfide-linked dimer; also called TR6-Fc; TNFR6-Fc; not shown: Fc domain of human IgG1
T2 sequence: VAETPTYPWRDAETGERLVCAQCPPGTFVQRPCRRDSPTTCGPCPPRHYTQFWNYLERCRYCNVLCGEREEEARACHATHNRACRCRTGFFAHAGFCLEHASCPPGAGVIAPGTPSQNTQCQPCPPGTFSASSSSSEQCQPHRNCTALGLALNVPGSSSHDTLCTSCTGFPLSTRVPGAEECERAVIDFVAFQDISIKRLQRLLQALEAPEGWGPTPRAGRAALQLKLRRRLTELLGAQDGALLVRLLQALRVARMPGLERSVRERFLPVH
The experiment is described as follows: BIAcore, TR6-Fc immobilized, trimerized FLAG-FasL soluble. In general terms: Surface plasmon resonance follows binding to a sensor surface in real time, without labels.

Experiment [4] has as its target T3, full length TNF-gamma-beta on the cell surface of transfected cells (human, UniProt O95150 1-251).
T3 construct: whole, on cells; also called TNF-gamma-beta expressing cells
T3 sequence (looked up): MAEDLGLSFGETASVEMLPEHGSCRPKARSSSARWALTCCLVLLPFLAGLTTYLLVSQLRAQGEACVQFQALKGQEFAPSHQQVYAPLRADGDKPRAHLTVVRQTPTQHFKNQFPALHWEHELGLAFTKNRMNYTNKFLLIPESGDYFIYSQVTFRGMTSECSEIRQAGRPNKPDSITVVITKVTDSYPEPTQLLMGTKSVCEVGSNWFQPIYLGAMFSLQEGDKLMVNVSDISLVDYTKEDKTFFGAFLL
The experiment is described as follows: flow cytometry, receptor-Fc on HEK293F cells expressing full length TNF-gamma-beta. The method, then:
(§1) One million cells, in 0.1 ml of FACS buffer (PBS, 0.1% BSA, 0.1% NaN₃), were incubated with 0.1-1 microgram of protein or antibody at RT for 15 min. The cells were washed with 3 ml of FACS buffer, reacted with biotinylated primary antibody, and stained with PE-conjugated secondary antibody at RT for 15 min. Cells were then washed again, resuspended in 0.5 microgram/ml of propidium iodide, and live cells were gated and analyzed on a FACScan using the CellQuest software (BD Biosciences).
For orientation: A flow cytometer gives signals particle by particle.

The target in experiment [5] is T4, FLAG-tagged soluble TNF-gamma-beta (aa 72-251) (human, UniProt O95150 72-251).
T4 construct: also called FLAG-TNF-gamma-beta; FLAG-TL1β
T4 sequence: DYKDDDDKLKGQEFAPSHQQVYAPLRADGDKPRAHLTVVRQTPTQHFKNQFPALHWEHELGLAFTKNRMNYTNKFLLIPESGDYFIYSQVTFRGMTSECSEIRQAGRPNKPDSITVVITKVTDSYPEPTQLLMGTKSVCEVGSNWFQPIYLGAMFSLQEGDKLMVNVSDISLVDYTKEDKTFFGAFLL
The experiment is described as follows: flow cytometry on transiently transfected cells. The method, then:
as §1

Experiment [6] concerns the target T3, full length TNF-gamma-beta on the cell …. Nature of the experiment: flow cytometry competition; competitor DR3-Fc. The method, then: as §1

Take “sFas ligand (Alexis Corporation) with a FLAG epitope tag at its N-terminus (from UniProt P48023 103-281)”: in experiment [1], the % Cells undergoing apoptosis (annexin/propidium iodide FACS, Jurkat cells), FasL (20 ng) alone (% cells undergoing apoptosis) is 8.87 and the Jurkat cell viability (ALOMAR blue, OD 570 nm-630 nm) (% decrease in cell viability) is 50.

B1: Soluble human FLAG-FasL (synthesized at HGS) (ligand)
chain: DYKDDDDKQIGHPSPPPEKKELRKVAHLTGKSNSRSMPLEWEDTYGIVLLSGVKYKKGGLVINETGLYFVYSKVYFRGQSCNNLPLSHKVYMRNSKYPQDLVMMEGKMMSYCTTGQMWARSSYLGAVFNLTSADHLYVNVSELSLVNFEESQTFFGLYKL
notes: Called trimerized in the BIAcore experiment; cross-linked with anti-FLAG antibody in the cell assays; also called FasL-Flag; trimerized FLAG-FasL
The Kd is the equilibrium constant for the complex coming apart. For the molecule B1, the “Jurkat apoptosis (annexin staining, FACS)” value in experiment [1] was around 7 fold. The dissociation constant Kd was found to be 17 nM in experiment [2] and 4.6 nM in experiment [3].

B2: TR2-Fc (extracellular domain of TR2, aa 1-192, fused to the Fc domain of human IgG1) (Fc fusion)
chain: LPSCKEDEYPVGSECCPKCSPGYRVKEACGELTGTVCEPCPPGTYIAHLNGLSKCLQCQMCDPAMGLRASRNCSRTENAVCGCSPGHFCIVQDGDHCAACRAYATSSPGQRVQKGGTESQDTLCQNCPPGTFSPNGTLEECQHQTKCSWLVTKA
notes: The range is as cloned; also called HveA-Fc; HveA; not shown: Fc domain of human IgG1
For B2, the binding result in experiment [4] is “no binding”.

B3: BCMA on transiently transfected cells (receptor, UniProt Q02223 1-184, looked up)
chain: MLQMAGQCSQNEYFDSLLHACIPCQLRCSSNTPPLTCQRYCNASVTNSVKGTNAILWTCLGLSLIISLAVFVLMFLLRKINSEPLKDEFKNTGSGLLGMANIDLEKSRTGDEIILPRGLEYTVEECTCEDCIKSKPKVDSDHCFPLPAMEEGATILVTTKTNDYCKSLPAALSATEIEKSISAR
notes: whole, on cells
Turning to B3, in experiment [5], the binding result was “no binding”.

Take B4: the “molar ratio of TR6 to DR3-Fc at which no DR3-Fc binding was detected” value in experiment [6] is 2 molar ratio (2:1).
